{"source": "paper PMC12072466", "about": "“Mechanisms of Viral DNA Replication of Human Papillomavirus: E2 Protein-Dependent Recruitment of E1 DNA Helicase to the Origin of DNA Replication” (International Journal of Molecular Sciences, 2025)", "binders": {"B1": {"name": "Oligo I, E2 BS1+2+E1BS (124 bp) (dsDNA)", "DNA 1": "GTAACCCACACCCTACATATTTCCTTCTTATACTTAATAACAATCTTAGTTTAAAAAAGAGGAGGGACCGAAAACGGTTCAACCGAAAACGGTTATATATAAACCAGCCCAAAAAATTAGCAGA", "DNA 2": "TCTGCTAATTTTTTGGGCTGGTTTATATATAACCGTTTTCGGTTGAACCGTTTTCGGTCCCTCCTCTTTTTTAAACTAAGATTGTTATTAAGTATAAGAAGGAAATATGTAGGGTGTGGGTTAC"}, "B2": {"name": "Oligo III, E2 BS (24 bp) (dsDNA)", "DNA 1": "CTTGCAACCGTTTTCGGTTGCCCT", "DNA 2": "AGGGCAACCGAAAACGGTTGCAAG"}, "B3": {"name": "Oligo II, E2 BS1+2 (50 bp) (dsDNA)", "DNA 1": "GGCGGGACCGAAAACGGTTCAACCGAAAACGGTTATATATAAACCAGCCC", "DNA 2": "GGGCTGGTTTATATATAACCGTTTTCGGTTGAACCGTTTTCGGTCCCGCC"}, "B4": {"name": "full-length HPV16 E1 helicase (enzyme)", "chain": "MADPAGTNGEEGTGCNGWFYVEAVVEKKTGDAISDDENENDSDTGEDLVDFIVNDNDYLTQAETETAHALFTAQEAKQHRDAVQVLKRKYLVSPLSDISGCVDNNISPRLKAICIEKQSRAAKRRLFESEDSGYGNTEVETQQMLQVEGRHETETPCSQYSGGSGGGCSQYSSGSGGEGVSERHTICQTPLTNILNVLKTSNAKAAMLAKFKELYGVSFSELVRPFKSNKSTCCDWCIAAFGLTPSIADSIKTLLQQYCLYLHIQSLACSWGMVVLLLVRYKCGKNRETIEKLLSKLLCVSPMCMMIEPPKLRSTAAALYWYKTGISNISEVYGDTPEWIQRQTVLQHSFNDCTFELSQMVQWAYDNDIVDDSEIAYKYAQLADTNSNASAFLKSNSQAKIVKDCATMCRHYKRAEKKQMSMSQWIKYRCDRVDDGGDWKQIVMFLRYQGVEFMSFLTALKRFLQGIPKKNCILLYGAANTGKSLFGMSLMKFLQGSVICFVNSKSHFWLQPLADAKIGMLDDATVPCWNYIDDNLRNALDGNLVSMDVKHRPLVQLKCPPLLITSNINAGTDSRWPYLHNRLVVFTFPNEFPFDENGNPVYELNDKNWKSFFSRTWSRLSLHEDEDKENDGDSLPTFKCVSGQNTNTL", "notes": "Replication protein E1 (DNA helicase) of human papillomavirus type 16, full-length, codon-optimized synthetic gene in pET28a; about 75 kDa on SDS-PAGE; Hexamer in solution by dynamic light scattering; also called HPV E1; E1 DNA helicase"}}, "key": {"E2 [1]": {"target": "T1, E2 (Human papillomavirus 16 (Methods 4.2; …, UniProt P03120 1-365)", "T1 sequence (P03120 whole entry)": "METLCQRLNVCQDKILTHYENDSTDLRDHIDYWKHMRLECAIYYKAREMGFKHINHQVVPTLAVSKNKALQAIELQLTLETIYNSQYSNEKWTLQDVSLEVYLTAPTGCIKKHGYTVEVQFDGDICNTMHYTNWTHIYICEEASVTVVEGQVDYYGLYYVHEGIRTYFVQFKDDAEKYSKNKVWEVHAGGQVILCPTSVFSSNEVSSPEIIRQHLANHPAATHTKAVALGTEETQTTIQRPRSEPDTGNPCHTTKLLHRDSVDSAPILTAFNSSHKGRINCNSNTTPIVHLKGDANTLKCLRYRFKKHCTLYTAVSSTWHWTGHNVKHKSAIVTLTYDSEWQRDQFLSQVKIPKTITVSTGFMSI", "experiment": "EMSA; 4 mM Mg2+, 1.4 mM ATP; E2 2.8 nM; C1* complex, two E2 dimers", "details": "protein: recombinant; tags: C-terminal 10xHis; chain copies: 2; label: 5' 32P; blunt"}, "E1 helicase;E2 [2]": {"target": "T2, E1 helicase;E2 (Human papillomavirus 16 (Methods 4.2; …, UniProt P03114;P03120 1-649;1-365, |)", "T2 sequence (P03120 whole entry, one chain of several)": "as the sequence (P03120 whole entry) above", "experiment": "EMSA; 4 mM Mg2+, 1.4 mM ATP; E2 2.8 nM, E1 43-347 nM; C2* and C3* complexes", "details": "protein: recombinant;recombinant; tags: C-terminal 10xHis;C-terminal 10xHis; chain copies: 6;2; label: 5' 32P; blunt"}, "E2 [3]": {"target": "T1, E2", "experiment": "EMSA; 4 mM Mg2+, 1.4 mM ATP; E2 2.8 nM; C1* complex, E2 dimer", "details": "protein: recombinant; tags: C-terminal 10xHis; chain copies: 2; label: 5' 32P; blunt"}, "E1 helicase;E2 [4]": {"target": "T2, E1 helicase;E2", "experiment": "EMSA; 4 mM Mg2+, 1.4 mM ATP; E2 2.8 nM, E1 43-347 nM; C3* complex even at low E1", "details": "protein: recombinant;recombinant; tags: C-terminal 10xHis;C-terminal 10xHis; chain copies: 6;2; label: 5' 32P; blunt"}, "[5]": {"target": "the molecule itself", "experiment": "dynamic light scattering; purified E1 in solution; oligomeric state; conditions not shown (Figure S3)"}}, "data": [{"binder": "B1", "values": [{"measurement": "binding result", "setting": "E2 [1]", "result": "binds"}, {"measurement": "binding result", "setting": "E1 helicase;E2 [2]", "result": "binds"}]}, {"binder": "B2", "values": [{"measurement": "binding result", "setting": "E2 [3]", "result": "binds"}]}, {"binder": "B3", "values": [{"measurement": "binding result", "setting": "E1 helicase;E2 [4]", "result": "binds"}]}, {"binder": "B4", "values": [{"measurement": "stoichiometry N", "setting": "[5]", "result": 6}]}]}
